In patent US20150344548A1 (XBIOTECH, published 2015):

Target: T1, commercial wildtype SpA (Staphylococcus aureus protein A) (Staphylococcus aureus, UniProt A0A0H3K686 37-477)
T1 construct: Bought wildtype SpA; also called SpA-coated beads; antigen
Assay: Bio-Layer Interferometry (ForteBio Octet Red 96), 20 nM antigen

T1 sequence (A0A0H3K686 37-477 limits assumed): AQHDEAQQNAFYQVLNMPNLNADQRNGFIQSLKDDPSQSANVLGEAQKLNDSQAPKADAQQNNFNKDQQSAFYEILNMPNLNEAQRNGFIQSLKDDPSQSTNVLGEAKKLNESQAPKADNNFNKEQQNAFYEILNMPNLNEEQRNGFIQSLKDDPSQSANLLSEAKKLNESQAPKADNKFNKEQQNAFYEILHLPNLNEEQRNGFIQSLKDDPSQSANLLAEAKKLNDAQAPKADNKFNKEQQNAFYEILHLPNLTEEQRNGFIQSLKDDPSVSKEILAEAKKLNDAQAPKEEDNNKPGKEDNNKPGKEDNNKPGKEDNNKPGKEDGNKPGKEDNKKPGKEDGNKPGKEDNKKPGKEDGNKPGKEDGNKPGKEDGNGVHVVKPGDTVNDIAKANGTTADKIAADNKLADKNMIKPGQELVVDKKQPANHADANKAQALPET

B1: PA7.2-G3 Ab (antibody)
heavy: EVQLVESRGGLVQPGGSLRLSCAASGFTFSNYAMSWVRQAPGKGLEWVSTISGSDGGTYYADSVKGRFTISRDNSGNTVYLQMNSLREDDTAVYYCARVGLSAPVTFFDFWGQGTLVTVSSASTKGPSVFPLAPCSRSTSGGTAALGCLVKDYFPEPVTVSWNSGALTSGVHTFPAVLQSSGLYSLSSVVTVPSSSLGTQTYTCNVNHKPSNTKVDKRVELKTPLGDTTHTCPRCPEPKSCDTPPPCPRCPEPKSCDTPPPCPRCPEPKSCDTPPPCPRCPAPELLGGPSVFLFPPKPKDTLMISRTPEVTCVVVDVSHEDPEVQFKWYVDGVEVHNAKTKPREEQYNSTFRVVSVLTVLHQDWLNGKEYKCKVSNKALPAPIEKTISKTKGQPREPQVYTLPPSREEMTKNQVSLTCLVKGFYPSDIAVEWESSGQPENNYNTTPPMLDSDGSFFLYSKLTVDKSRWQQGNIFSCSVMHEALHNRFTQKSLSLSPGK
light: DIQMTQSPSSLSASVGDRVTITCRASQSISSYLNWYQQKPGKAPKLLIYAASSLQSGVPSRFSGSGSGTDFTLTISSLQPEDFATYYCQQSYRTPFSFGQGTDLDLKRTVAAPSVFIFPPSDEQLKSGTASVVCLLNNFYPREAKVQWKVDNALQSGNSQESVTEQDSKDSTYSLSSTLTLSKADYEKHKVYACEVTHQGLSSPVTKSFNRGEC
notes: Human IgG3; copies: 2 + 2
B1 gave a Kd of less than 1 pM.
